Results: patent US20260166140A1, “Combinations Involving Epidermal Growth Factor Receptor Tyrosine Kinase Inhibitors For the Treatment of Cancer” (AstraZeneca AB, priority 2022, published 2026)

T1: Semaphorin 3a (UniProt Q14563 21-771, limits assumed)
T1 construct: also called Sema 3a
T1 sequence (looked up): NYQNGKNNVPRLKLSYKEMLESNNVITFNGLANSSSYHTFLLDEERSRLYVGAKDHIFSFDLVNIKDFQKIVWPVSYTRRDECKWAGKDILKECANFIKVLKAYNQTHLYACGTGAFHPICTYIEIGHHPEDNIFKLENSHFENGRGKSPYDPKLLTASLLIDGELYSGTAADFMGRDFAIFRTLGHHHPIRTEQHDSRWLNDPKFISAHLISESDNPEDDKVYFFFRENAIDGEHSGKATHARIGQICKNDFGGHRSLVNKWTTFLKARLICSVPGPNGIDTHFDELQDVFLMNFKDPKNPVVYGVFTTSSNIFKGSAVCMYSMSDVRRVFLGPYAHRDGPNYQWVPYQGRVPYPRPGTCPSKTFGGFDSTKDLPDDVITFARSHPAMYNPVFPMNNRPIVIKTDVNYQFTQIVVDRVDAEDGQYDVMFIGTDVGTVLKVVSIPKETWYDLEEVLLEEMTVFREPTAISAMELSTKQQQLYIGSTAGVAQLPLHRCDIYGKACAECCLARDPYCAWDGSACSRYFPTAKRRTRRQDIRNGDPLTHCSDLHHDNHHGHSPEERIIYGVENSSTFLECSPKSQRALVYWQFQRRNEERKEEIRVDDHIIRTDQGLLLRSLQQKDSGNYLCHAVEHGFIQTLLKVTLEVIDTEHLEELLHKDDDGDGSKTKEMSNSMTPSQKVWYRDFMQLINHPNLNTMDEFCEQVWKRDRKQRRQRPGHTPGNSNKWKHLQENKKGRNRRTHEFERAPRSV

T2: HER4 (UniProt Q15303 26-649, limits assumed)
T2 construct: also called EGFR HER family protein HER4
T2 sequence (looked up): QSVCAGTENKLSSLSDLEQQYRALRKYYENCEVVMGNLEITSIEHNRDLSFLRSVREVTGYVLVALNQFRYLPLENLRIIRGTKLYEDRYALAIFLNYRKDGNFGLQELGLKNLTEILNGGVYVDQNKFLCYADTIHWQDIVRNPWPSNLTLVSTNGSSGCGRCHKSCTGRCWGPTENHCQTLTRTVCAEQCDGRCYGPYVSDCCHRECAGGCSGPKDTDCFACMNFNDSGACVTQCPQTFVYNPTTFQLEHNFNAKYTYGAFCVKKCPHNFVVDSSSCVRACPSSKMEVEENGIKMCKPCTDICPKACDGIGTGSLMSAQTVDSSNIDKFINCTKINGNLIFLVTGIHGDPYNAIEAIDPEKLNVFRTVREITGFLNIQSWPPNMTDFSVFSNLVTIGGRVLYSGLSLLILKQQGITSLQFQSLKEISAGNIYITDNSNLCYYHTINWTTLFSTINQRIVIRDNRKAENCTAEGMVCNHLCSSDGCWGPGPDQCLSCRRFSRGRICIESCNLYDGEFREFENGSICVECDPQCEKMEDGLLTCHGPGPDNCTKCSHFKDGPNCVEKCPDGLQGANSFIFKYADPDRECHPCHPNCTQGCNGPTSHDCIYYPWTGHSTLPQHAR


How the values were obtained:
HER3 = molecular target: T3, HER3 (UniProt P21860 20-643, limits assumed); test: ELISA: antigen coated at 1 ug/mL, antibody dilution series, goat anti-human Fab-HRP, A450; panel Human HER3
T3 construct: also called EGFR HER family protein HER3

Human EGFR = Human EGFR (Homo sapiens, UniProt P00533); test: ELISA species cross reactivity; assay type: binding; settings: antibody 10 to 0.002 μg/mL
Procedure: (§1) Specificity for EGFR and cMET species paralogs and closely related family members was determined by ELISA. Briefly, antigen solutions were prepared in PBS at 1 μg/mL and 50 microliters was coated onto half area ELISA assay plates. Plates were washed and blocked with 1% BSA in PBS containing 0.005% Tween-20 (PBS-T) for one hour at room temperature. The wells were washed 4 times in PBS-T. As set out in FIG. 3, the primary antibodies used where: R374 (a non-binding IgG1 isotype control antibody), B09 (anti-cMET antibody), QD6 (anti-EGFR antibody), RAA22 (anti-EGFR antibody), QD6/B09 (bispecific EGFR/c-MET DuetMAb), RAA22/B09 (bispecific EGFR/c-MET DuetMAb), PaniX (anti-EGFR antibody), MetMab (anti-cMET antibody) and Mab11311 (anti-HER4 antibody). Wells were incubated with 50 microliters of the indicated primary antibodies diluted in PBS-T in a 1:3 dilution series, starting at 10 μg/mL and ending at 0.002 μg/mL, except for the HER4 binding mAb control, MAB1131, for which the series started at 1 μg/mL. The wells were washed 4 times in PBS-T, then 50 μl of goat anti-human Fab HRP-labeled secondary antibody, diluted 1:5000 in PBS-T, was added to each well and incubated for one hour at room temperature. […] 50 microliters of TMB stop solution was added to all wells and the absorbance was read at 450 nm on a SpectraMax M5 microplate reader. Data were analyzed in the SoftMax Pro 5 software and plotted using GraphPad Prism 7 graphing software.
(§2) To determine the species cross reactivity, ELISA assays were carried out as described above. […] There was no detectable binding of any of the antibodies to mouse cMET.

Cynomolgus monkey EGFR = test: ELISA species cross reactivity; assay type: binding
Procedure: as §1, §2

Mouse EGFR = molecular target: T4, Mouse EGFR (Mus musculus, UniProt Q01279); test: ELISA species cross reactivity; assay type: binding
T4 construct: purchased SinoBiological 51091-M08H
Procedure: as §1, §2

[1] = molecular target: T5, Human cMET (recombinant, soluble monomeric) (human, UniProt P08581 25-932); test: SPR, Biacore T200, antibody captured on anti-human IgG, soluble monomeric antigen as analyte, 25 C
T5 construct: in the HTRF assay it is called the human cMET receptor; also called His-tagged cMET antigen

Mouse cMET (recombinant) = Mouse cMET (recombinant) (mouse, UniProt P16056 25-929, limits assumed); test: ELISA: antigen coated at 1 ug/mL, antibody dilution series, goat anti-human Fab-HRP, A450; panel Mouse cMET
Semaphorin 3a = molecular target: T1, Semaphorin 3a; test: ELISA: antigen coated at 1 ug/mL, antibody dilution series, goat anti-human Fab-HRP, A450; panel Human Sema3a
HER4 = molecular target: T2, HER4; test: ELISA: antigen coated at 1 ug/mL, antibody dilution series, goat anti-human Fab-HRP, A450; panel Human HER4

T5 sequence (P08581 25-932): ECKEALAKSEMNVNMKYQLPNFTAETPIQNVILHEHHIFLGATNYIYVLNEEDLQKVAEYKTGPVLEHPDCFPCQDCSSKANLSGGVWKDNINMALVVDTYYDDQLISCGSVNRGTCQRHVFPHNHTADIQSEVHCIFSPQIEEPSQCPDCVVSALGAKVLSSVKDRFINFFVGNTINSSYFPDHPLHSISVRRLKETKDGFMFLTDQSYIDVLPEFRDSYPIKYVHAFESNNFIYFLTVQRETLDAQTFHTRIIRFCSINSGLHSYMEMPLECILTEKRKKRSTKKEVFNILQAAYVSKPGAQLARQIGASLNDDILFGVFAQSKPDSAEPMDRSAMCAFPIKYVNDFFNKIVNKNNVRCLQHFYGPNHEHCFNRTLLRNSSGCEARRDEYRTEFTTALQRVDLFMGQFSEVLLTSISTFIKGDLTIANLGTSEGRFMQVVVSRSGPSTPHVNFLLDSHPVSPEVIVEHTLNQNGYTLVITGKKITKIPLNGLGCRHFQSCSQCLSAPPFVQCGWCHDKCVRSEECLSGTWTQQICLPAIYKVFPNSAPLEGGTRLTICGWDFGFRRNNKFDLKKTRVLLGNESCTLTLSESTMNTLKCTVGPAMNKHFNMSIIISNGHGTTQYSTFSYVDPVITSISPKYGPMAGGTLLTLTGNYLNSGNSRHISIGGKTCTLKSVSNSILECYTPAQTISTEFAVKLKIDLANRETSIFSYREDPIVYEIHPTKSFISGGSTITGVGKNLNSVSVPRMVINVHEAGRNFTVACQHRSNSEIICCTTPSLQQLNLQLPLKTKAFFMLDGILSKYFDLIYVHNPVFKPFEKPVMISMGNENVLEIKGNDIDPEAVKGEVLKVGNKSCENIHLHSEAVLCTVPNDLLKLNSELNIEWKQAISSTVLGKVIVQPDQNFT
Sequence of Mouse cMET (recombinant) (P16056 25-929 limits assumed): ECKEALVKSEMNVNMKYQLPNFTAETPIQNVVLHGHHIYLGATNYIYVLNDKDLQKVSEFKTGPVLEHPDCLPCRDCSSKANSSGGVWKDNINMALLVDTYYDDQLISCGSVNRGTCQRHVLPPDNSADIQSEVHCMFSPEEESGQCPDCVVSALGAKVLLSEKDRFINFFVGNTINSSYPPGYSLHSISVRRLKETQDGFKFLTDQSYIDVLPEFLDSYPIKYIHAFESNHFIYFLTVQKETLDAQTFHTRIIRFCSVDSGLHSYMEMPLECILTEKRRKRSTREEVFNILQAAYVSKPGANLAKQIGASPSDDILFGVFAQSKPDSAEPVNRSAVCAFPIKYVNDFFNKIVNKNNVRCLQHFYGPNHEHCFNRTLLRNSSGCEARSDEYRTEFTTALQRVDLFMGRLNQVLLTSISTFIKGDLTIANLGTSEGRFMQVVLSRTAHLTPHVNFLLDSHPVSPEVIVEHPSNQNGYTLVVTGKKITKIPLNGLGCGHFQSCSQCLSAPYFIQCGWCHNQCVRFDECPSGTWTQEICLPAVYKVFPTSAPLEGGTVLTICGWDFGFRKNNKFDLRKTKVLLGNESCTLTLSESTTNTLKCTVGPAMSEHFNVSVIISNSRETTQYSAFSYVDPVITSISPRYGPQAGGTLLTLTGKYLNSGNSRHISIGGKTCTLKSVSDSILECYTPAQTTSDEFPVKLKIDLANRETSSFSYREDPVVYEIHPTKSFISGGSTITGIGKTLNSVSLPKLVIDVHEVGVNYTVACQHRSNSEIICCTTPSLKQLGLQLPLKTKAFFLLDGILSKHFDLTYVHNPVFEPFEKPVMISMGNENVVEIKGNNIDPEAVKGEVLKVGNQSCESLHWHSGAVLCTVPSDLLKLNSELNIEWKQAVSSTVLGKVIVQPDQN

Molecule	binding result (HER3)	ELISA binding (Human EGFR)	ELISA binding (Cynomolgus monkey EGFR)	ELISA binding (Mouse EGFR)	Kd [1] [nM]	koff [1] [s⁻¹]	kon [1] [M⁻¹ s⁻¹]	binding result (Mouse cMET (recombinant))	binding result (Semaphorin 3a)	binding result (HER4)
RAA22/B09-57 DuetMab (bispecific antibody, human IgG1, kappa, lambda, also called monovalent bispecific EGFR/cMET DuetMAb RAA22/B09; RAA22/B09-Maia) heavy 1: QVQLVQSGAEVKKPGSSVKVSCKASGGTFSDNDFSWVRQAPGQGLEWMGAIVAVFRTETYAQKFQDRVKITADISTRTTYMELSSLRSEDTAVYYCARRLMSAISGPGAPLLMWGQGTLVTVSSASTKGPSVFPLAPSSKSTSGGTAALGCLVKDYFPEPVTVSWNSGALTSGVHTFPAVLQSSGLYSLSSVVTVPSSSLGTQTYICNVNHKPSNTKVDKRVEPKSCDKTHTCPPCPAPELLGGPSCVFLFPPKPKDTLMISRTPEVTCVVVDVSHEDPEVKFNWYVDGVEVHNAKTKPREEQYNSTYRVVSVLTVLHQDWLNGKEYKCKVSNKALPAPIEKTISKAKGQPREPQVCTLPPSREEMTKNQVSLSCAVKGFYPSDIAVEWESNGQPENNYKTTPPVLDSDGSFFLVSKLTVDKSRWQQGNVFSCSVMHEALHNHYTQKSLSLSPGK heavy 2: QVQLVQSGAEVKKPGASVKVSCKASGYTFTDYYIHWVRQATGQGLEWMGWMNPNSGNTGYAQKFQGRVTMTRDTSISTAYMELSSLRSEDTAVYYCARGQGYTHSWGQGTMVTVSSASTKGPSVCPLAPSSKSTSGGTAALGCLVKDYFPEPVTVSWNSGALTSGVHTFPAVLQSSGLYSLSSVVTVPSSSLGTQTYICNVNHKPSNTKVDKRVEPKSVDKTHTCPPCPAPELLGGPSCVFLFPPKPKDTLMISRTPEVTCVVVDVSHEDPEVKFNWYVDGVEVHNAKTKPREEQYNSTYRVVSVLTVLHQDWLNGKEYKCKVSNKALPAPIEKTISKAKGQPREPQVYTLPPCREEMTKNQVSLWCLVKGFYPSDIAVEWESNGQPENNYKTTPPVLDSDGSFFLYSKLTVDKSRWQQGNVFSCSVMHEALHNHYTQKSLSLSPG light 1: QSALTQPRSVSGSPGQSVTISCTGTSSDVGGYNYVSWYQQHPGKAPKLMIYDVSKRPSGVPDRFSGSKSGNTASLTISGLQAEDEADYYCSSYTSSDTLEIFGGGTKLTVLGQPKAAPSVTLFPPSSEELQANKATLVCLISDFYPGAVTVAWKADSSPVKAGVETTTPSKQSNNKYAASSYLSLTPEQWKSHRSYSCQVTHEGSTVEKTVAPTECS light 2: DIQMTQSPSTLSASVGDRVTITCRASEGIYHWLAWYQQKPGKAPKLLIYKASSLASGVPSRFSGSGSGTEFTLTISSLQPDDFATYYCQQYSNYPPTFGGGTKLEIKRTVAAPSVFIFPPCDEQLKSGTASVVCLLNNFYPREAKVQWKVDNALQSGNSQESVTEQDSKDSTYSLSSTLTLSKADYEKHKVYACEVTHQGLSSPVTKSFNRGEV	no binding (tested: 10 ug/ml)	still weaker binding	still weaker binding	nominal binding	2.2	0.000986	443000	no binding (tested: 10 ug/ml)	no binding (tested: 10 ug/ml)	no binding (tested: 10 ug/ml)
QD6/B09-57 DuetMab (bispecific antibody, human IgG1, kappa, lambda, also called monovalent bispecific EGFR/cMET DuetMAb QD6/B09) heavy 1: QVQLVQSGAEVKKPGSSVKVSCKASGGTFSDNDFSWVRQAPGQGLEWMGAIVAVVRTETYAQKFQDRVKITADISTRTTYMELSSLRSEDTAVYYCARRLMSAISGPGAPLLMWGQGTLVTVSSASTKGPSVFPLAPSSKSTSGGTAALGCLVKDYFPEPVTVSWNSGALTSGVHTFPAVLQSSGLYSLSSVVTVPSSSLGTQTYICNVNHKPSNTKVDKRVEPKSCDKTHTCPPCPAPELLGGPSCVFLFPPKPKDTLMISRTPEVTCVVVDVSHEDPEVKFNWYVDGVEVHNAKTKPREEQYNSTYRVVSVLTVLHQDWLNGKEYKCKVSNKALPAPIEKTISKAKGQPREPQVCTLPPSREEMTKNQVSLSCAVKGFYPSDIAVEWESNGQPENNYKTTPPVLDSDGSFFLVSKLTVDKSRWQQGNVFSCSVMHEALHNHYTQKSLSLSPGK heavy 2: QVQLVQSGAEVKKPGASVKVSCKASGYTFTDYYIHWVRQATGQGLEWMGWMNPNSGNTGYAQKFQGRVTMTRDTSISTAYMELSSLRSEDTAVYYCARGQGYTHSWGQGTMVTVSSASTKGPSVCPLAPSSKSTSGGTAALGCLVKDYFPEPVTVSWNSGALTSGVHTFPAVLQSSGLYSLSSVVTVPSSSLGTQTYICNVNHKPSNTKVDKRVEPKSVDKTHTCPPCPAPELLGGPSCVFLFPPKPKDTLMISRTPEVTCVVVDVSHEDPEVKFNWYVDGVEVHNAKTKPREEQYNSTYRVVSVLTVLHQDWLNGKEYKCKVSNKALPAPIEKTISKAKGQPREPQVYTLPPCREEMTKNQVSLWCLVKGFYPSDIAVEWESNGQPENNYKTTPPVLDSDGSFFLYSKLTVDKSRWQQGNVFSCSVMHEALHNHYTQKSLSLSPG light 1: QSALTQPRSVSGSPGQSVTISCTGTSSDVGGYNYVSWYQQHPGKAPKLMIYDVSERPSGVPDRFSGSKSGNTASLTISGLQAEDEADYYCFSYTSSDTLEIFGGGTKLTVLGQPKAAPSVTLFPPSSEELQANKATLVCLISDFYPGAVTVAWKADSSPVKAGVETTTPSKQSNNKYAASSYLSLTPEQWKSHRSYSCQVTHEGSTVEKTVAPTECS light 2: DIQMTQSPSTLSASVGDRVTITCRASEGIYHWLAWYQQKPGKAPKLLIYKASSLASGVPSRFSGSGSGTEFTLTISSLQPDDFATYYCQQYSNYPPTFGGGTKLEIKRTVAAPSVFIFPPCDEQLKSGTASVVCLLNNFYPREAKVQWKVDNALQSGNSQESVTEQDSKDSTYSLSSTLTLSKADYEKHKVYACEVTHQGLSSPVTKSFNRGEV	no binding (tested: 10 ug/ml)	gave robust signals	gave robust signals	gave robust signals	1.6	0.000696	425000	no binding (tested: 10 ug/ml)	no binding (tested: 10 ug/ml)	no binding (tested: 10 ug/ml)
